The record followed here is patent publication US20180326084A1 (Genmab, published 2018).

One assay concerns the target T1, AXLECDHis (human, UniProt P30530 26-447).
T1 construct: theoretical mass 46 kDa used; also called extracellular domain (ECD) of human AXL (aa 1-447) with a C-terminal His tag; soluble recombinant AXL extracellular domain
Description: BLI (Octet), IgG on anti-human Fc sensor, AXLECDHis analyte. (In general: BLI is a label-free optical method that tracks binding on a fibre tip over time.)

The target of assay [1] is T2, human AXL with a cynomolgus monkey extracellular domain (ECD) (cynomolgus monkey (Macaca …, UniProt P30530 26-894)).
T2 construct: Chimera on transfected HEK293T cells; also called cynomolgus AXL; cynomolgus AXL-ECD
T2 chain: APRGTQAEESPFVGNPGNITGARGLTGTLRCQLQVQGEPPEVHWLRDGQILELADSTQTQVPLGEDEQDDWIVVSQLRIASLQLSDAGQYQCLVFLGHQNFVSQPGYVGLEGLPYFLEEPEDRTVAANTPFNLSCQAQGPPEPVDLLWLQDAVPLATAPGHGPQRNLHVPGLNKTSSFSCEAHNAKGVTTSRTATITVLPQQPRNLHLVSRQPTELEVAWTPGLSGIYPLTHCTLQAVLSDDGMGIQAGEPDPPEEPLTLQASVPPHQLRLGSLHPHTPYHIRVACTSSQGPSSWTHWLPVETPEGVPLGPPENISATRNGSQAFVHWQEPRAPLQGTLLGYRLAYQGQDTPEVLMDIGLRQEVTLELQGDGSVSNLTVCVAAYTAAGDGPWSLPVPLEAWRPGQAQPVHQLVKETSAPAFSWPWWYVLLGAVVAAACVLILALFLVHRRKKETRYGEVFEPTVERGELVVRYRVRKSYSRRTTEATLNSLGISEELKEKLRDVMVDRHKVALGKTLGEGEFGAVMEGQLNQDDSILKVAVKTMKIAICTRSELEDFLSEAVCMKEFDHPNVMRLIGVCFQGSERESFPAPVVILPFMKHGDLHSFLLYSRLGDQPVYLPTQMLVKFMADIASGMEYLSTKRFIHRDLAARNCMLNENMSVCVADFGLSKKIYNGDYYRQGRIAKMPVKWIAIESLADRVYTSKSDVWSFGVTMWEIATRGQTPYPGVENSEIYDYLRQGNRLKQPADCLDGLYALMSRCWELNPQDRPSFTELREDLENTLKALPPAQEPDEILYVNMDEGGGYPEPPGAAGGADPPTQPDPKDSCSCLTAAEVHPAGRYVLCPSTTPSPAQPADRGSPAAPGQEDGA
Description: flow cytometry, HEK293T cells with human AXL carrying cynomolgus ECD.

Assay [2] addresses T3, Homo sapiens AXL-Mus musculus FN2 domain (p33-AXL-mFN2) (human-mouse chimera, UniProt P30530 26-894).
T3 construct: Expressed in HEK293F cells; also called hsAXL-mmFN2; TH1021-mFN2
T3 chain: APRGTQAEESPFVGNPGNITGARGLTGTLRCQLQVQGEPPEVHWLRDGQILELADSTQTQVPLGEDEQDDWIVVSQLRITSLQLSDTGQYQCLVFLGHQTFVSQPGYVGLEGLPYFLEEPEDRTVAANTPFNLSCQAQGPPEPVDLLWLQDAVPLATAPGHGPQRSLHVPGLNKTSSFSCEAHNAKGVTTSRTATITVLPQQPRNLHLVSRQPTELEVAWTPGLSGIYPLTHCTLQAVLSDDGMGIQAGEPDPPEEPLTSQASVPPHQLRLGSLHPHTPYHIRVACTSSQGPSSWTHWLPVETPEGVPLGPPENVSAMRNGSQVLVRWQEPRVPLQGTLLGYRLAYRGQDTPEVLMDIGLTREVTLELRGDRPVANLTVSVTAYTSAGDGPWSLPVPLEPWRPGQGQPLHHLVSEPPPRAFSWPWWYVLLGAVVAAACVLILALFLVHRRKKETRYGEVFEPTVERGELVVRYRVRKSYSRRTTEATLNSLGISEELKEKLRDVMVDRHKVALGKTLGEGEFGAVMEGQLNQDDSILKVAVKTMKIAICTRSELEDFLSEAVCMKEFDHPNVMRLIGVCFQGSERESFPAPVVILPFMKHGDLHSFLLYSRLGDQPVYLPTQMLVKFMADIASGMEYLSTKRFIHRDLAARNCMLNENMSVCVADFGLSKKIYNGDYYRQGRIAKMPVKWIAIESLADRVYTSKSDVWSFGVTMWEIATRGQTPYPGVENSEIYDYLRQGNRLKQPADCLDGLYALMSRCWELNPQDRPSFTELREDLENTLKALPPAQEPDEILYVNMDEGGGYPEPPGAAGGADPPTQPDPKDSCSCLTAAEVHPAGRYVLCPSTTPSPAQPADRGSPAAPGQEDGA
Description: flow cytometry, 1 µg/mL antibody, transfected HEK293F cells. On the technique in general: A flow cytometer gives signals particle by particle.

Assay [3] deals with T4, Homo sapiens AXL-Mus musculus Ig2 domain (p33-AXL-mIg2) (human-mouse chimera, UniProt P30530 26-894).
T4 construct: Expressed in HEK293F cells; also called hsAXL-mmIg2; TH1021-mIg2
T4 chain: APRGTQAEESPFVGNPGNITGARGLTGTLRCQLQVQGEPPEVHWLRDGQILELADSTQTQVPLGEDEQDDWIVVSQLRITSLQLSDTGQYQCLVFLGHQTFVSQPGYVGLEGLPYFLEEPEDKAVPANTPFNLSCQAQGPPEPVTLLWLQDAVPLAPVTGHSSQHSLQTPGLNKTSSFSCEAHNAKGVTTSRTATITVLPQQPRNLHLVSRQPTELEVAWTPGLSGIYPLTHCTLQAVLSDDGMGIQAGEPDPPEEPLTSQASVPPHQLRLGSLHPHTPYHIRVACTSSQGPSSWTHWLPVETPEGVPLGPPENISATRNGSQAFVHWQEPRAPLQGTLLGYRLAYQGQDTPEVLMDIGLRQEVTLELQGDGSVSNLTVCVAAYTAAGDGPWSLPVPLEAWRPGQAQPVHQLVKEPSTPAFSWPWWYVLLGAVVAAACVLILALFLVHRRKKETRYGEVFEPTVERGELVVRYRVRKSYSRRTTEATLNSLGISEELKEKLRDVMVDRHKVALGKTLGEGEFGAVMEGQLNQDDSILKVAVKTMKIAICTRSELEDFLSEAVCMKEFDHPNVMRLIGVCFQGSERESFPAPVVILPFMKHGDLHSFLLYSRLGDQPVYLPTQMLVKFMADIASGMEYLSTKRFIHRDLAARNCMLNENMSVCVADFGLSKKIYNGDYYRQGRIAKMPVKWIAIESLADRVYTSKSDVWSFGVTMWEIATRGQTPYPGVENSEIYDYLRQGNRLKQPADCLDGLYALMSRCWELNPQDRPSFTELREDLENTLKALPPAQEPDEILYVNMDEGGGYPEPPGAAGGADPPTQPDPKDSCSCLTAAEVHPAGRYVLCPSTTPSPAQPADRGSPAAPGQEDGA
The assay is described as above.

Residue numbers refer to the chain shown, from its start.

T1 sequence (P30530 26-447): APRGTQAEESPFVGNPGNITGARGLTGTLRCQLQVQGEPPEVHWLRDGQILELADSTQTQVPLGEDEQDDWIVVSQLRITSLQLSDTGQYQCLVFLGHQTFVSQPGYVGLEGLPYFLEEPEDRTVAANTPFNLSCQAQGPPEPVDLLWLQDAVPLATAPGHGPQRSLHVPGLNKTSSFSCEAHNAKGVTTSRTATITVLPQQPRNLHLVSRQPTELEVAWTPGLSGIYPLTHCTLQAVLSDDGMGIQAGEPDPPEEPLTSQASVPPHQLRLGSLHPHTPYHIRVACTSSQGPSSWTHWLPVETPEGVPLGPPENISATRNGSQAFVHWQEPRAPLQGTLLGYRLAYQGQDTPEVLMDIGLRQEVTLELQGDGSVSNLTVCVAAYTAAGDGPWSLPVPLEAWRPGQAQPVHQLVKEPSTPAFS

B1: IgG1-AXL-148 (antibody, V domains shown)
VH: EVQLLESGGGLVQPGGSLRLSCAASGFTFSSYAMTWVRQAPGKGLEWVSAISISGGSTFYADSVKGRFTISRDNSKNTLYLQMNSLRAEDTAVYYCRGYSGYVYDAFDFWGQGTMVTVSS
VL: DIQMTQSPSSLSASVGDRVTITCRASQGISNWLAWYQQKPEKAPKSLIYAASSLQSGVPSRFSGSGSGTDFTLTISSLQPEDFATYYCQQYNSYPLTFGGGTKVEIK
Turning to B1, in the assay with AXLECDHis, the Kd (as a rule, the equilibrium constant for the complex coming apart) was 20 nM; the off-rate constant (koff) (usually the rate constant with which the complex falls apart) amounted to 0.0044 s⁻¹; the kon (as a rule, the second-order rate constant of association) was found to be 230000 M⁻¹ s⁻¹. In addition, the EC50 (commonly the concentration giving half of the maximal effect) in assay [1] was determined as 0.152 µg/mL. The binding result in assay [2] is “binds”.

B2: IgG1-AXL-726 (antibody, V domains shown)
VH: QVQLQQWGAGLLKPSETLSLTCAIDGGSFSGYYWSWIRQPPGKGLEWIGEISHSGRTNYNPSLKSRVTISIDTSKNQFSLKLSSVAAADTAVYYCARFITMIRGAIITHFDYWGQGALVTVSS
VL: B1 VL with N31S, N92H, L96Y, G100Q, V104L
B2: in the assay with AXLECDHis, the Kd came to 0.6 nM, the koff was determined as 0.00013 s⁻¹ and the on-rate (kon) came out at 240000 M⁻¹ s⁻¹. This molecule displayed a concentration giving a half-maximal response (EC50) in assay [1] of 0.349 µg/mL. Moreover, the binding result in assay [3] was “binds”.

B3: IgG1-AXL-183 (antibody, V domains shown)
VH: QVQLQQWGAGLLKPSETLSLTCAVYGGSFSGYYWSWIRQPPGKGLEWIGEINQSGSTNYNPSLKSRVTISVDTSKNQFSLKLSSVTAADTSVYYCASGNWDHFFDYWGQGTLVTVSS
VL: DIQMTQSPSSVSASVGDRVTITCRASQGISSWLAWYQHKPGKAPKLLIYATSSLQSGVTSRFSGSGSGTDFTLTISSLQPEDFATYYCQQAKSFPWTFGQGTKVEIK
In the assay with AXLECDHis, B3 displayed a Kd of 10.2 nM, a koff of 0.00042 s⁻¹ and an association rate constant (kon) of 41000 M⁻¹ s⁻¹. Also, the EC50 in assay [1] was 0.309 µg/mL. In assay [3], the binding result is listed as “binds”. Moreover, the binding result in assay [2] was “binds”.

B4: IgG1-AXL-733 (antibody, V domains shown)
VH: QVQLVESGGGVVQPGRSLRLSCAASGFSFSTYAMHWVRQAPGKGLEWVAVISYDGDNKYSADSVKGRFTISRDNSKNTLYLQMNSLRAEDTAVYYCARGRKLGIDAFDIWGQGTMVTVSS
VL: AIQLTQSPSSLSASVGDRVTITCRASQGISSALAWYQQKPGKAPKLLIYDASSLESGVPSRFSGSGSGTDFTLTISGLQPEDFATYYCQQFNSYPFTFGPGTKVDIK
With B4, in the assay with AXLECDHis, binding was characterised by a dissociation constant (Kd) of 63 nM, the dissociation rate constant (koff) is 0.0097 s⁻¹ and the kon was determined as 160000 M⁻¹ s⁻¹. The molecule also displayed a 50% effective concentration (EC50) in assay [1] of 0.254 µg/mL. Also, in assay [3], the binding result is “binds”. Besides, the binding result in assay [2] was “binds”.
